Changes are numbered by the printed parent chain.
Tests used:
[1] = test system: T1, dCas12j-8 D523R D523R;D369A;E567A;D658A (bacteriophage (metagenome)); details: HEK293T cells; panel 1c (compare within a panel only); scale: mean GFP / mean GFP of wild type, printed, no background subtraction
T1 sequence: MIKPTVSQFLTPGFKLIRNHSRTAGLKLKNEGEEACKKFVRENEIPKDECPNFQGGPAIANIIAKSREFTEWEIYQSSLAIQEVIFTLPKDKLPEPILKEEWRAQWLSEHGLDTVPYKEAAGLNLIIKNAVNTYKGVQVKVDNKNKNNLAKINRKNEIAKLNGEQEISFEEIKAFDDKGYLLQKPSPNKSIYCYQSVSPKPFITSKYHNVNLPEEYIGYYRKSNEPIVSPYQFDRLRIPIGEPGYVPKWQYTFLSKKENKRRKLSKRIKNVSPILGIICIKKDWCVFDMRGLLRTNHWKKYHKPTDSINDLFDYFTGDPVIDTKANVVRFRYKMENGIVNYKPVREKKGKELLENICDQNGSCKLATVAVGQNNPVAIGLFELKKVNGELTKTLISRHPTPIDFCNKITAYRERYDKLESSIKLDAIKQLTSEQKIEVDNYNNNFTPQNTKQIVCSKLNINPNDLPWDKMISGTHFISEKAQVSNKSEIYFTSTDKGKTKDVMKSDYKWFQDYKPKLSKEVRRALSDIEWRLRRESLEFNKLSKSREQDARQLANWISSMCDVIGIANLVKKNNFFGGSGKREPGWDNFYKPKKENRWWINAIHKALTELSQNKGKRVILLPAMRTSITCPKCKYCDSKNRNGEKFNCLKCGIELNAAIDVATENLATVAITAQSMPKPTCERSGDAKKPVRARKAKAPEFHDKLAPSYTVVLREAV

[2] = test system: T2, dCas12j-8 E258R+E547R E258R;E547R;D369A;E567A;D658A (bacteriophage (metagenome)); details: HEK293T cells; panel 1d (compare within a panel only); scale: mean GFP / mean GFP of wild type, printed, no background subtraction
T2 sequence: T1 sequence with E258R, R523D, E547R

[3] = test system: T3, dCas12j-8 E609R E609R;D369A;E567A;D658A (bacteriophage (metagenome)); details: HEK293T cells; panel 1c (compare within a panel only); scale: mean GFP / mean GFP of wild type, printed, no background subtraction
T3 sequence: T1 sequence with R523D, E609R

[4] = test system: T4, dCas12j-8 E258R+D142R E258R;D142R;D369A;E567A;D658A (bacteriophage (metagenome)); details: HEK293T cells; panel 1d (compare within a panel only); scale: mean GFP / mean GFP of wild type, printed, no background subtraction
T4 sequence: T1 sequence with D142R, E258R, R523D

CUUUCAAGACUAAUAGAUUGCUCCUUACGAGGAGACACUCCCUAUCAGUGAUAGAG / TTNACTCCCTATCAGTGATAGAG / CTCTATCACTGATAGGGAGTNAA [TetO]
binding signal [1]: 1.32 | binding signal [2]: 3.03 | binding signal [3]: 0.336 | binding signal [4]: 1.87

Source: paper PMC12412624, “Engineered Cas12j‐8 is a Versatile Platform for Multiplexed Genome Modulation in Mammalian Cells”
